Measurements reported in article PMC3582033 (Cell, 2011).

Test system: HP1γ binding to H3 peptide containing K9me3 as the sole modification
Assay: TRIM33 competition with HP1γ for H3 peptide, K9me3 only
Details: 3-fold molar excess of TRIM33

competition with HP1γ: ineffective at competing with HP1γ
B1: TRIM33: Flag-tagged TRIM33 protein (protein)
chain: MAENKGGGEAESGGGGSGSAPVTAGAAGPTAQEAEPPLAAVLVEEEEEEGGRAGAEGGAAGPDDGGVAAASSSSAPAASVPAASVGSAVPGGAASTPAPAAAPAPAPAPAPAPAPAPAPAPAPGSSSGPPLGPPASLLDTCAVCQQSLQSRREAEPKLLPCLHSFCLRCLPEPERQLSVPIPGGSNGDVQQVGVIRCPVCRQECRQIDLVDNYFVKDTSEAPSSSDEKSEQVCTSCEDNASAVGFCVECGEWLCKTCIEAHQRVKFTKDHLIRKKEDVSESVGTSGQRPVFCPVHKQEQLKLFCETCDRLTCRDCQLLEHKEHRYQFLEEAFQNQKGAIENLLAKLLEKKNYVHFAATQVQNRIKEVNETNKRVEQEIKVAIFTLINEINKKGKSLLQQLENVTKERQMKLLQQQNDITGLSRQVKHVMNFTNWAIASGSSTALLYSKRLITFQLRHILKARCDPVPAANGAIRFHCDPTFWAKNVVNLGNLVIESKPAPGYTPNVVVGQVPPGTNHISKTPGQINLAQLRLQHMQQQVYAQKHQQLQQMRLQQPPAPIPTTTATTQQHPRQAAPQMLQQQPPRLISVQTMQRGNMNCGAFQAHQMRLAQNAARIPGIPRHSAPQYSMMQPHLQRQHSNPGHAGPFPVVSAHNPINPTSPTTATMANANRGPTSPSVTAIELIPSVTNPENLPSLPDIPPIQLEDAGSSSLDNLLSRYISGSHLPPQPTSTMNPSPGPSALSPGSSGLSNSHTPVRPPSTSSTGSRGSCGSSGRTAEKSAHSFKSDQVKVKQEPGTEEEICSFSGAVKQEKTEDGRRSACMLSSPESSLTPPLSTNLHLESELDTLTGLENHVKTEPTDISESCKQSGLSNLVNGKSPIRNLMHRSARIGGDGNSKDDDPNEDWCAVCQNGGDLLCCEKCPKVFHLTCHVPTLLSFPSGDWICTFCRDIGKPEVEYDCDNMQHSKKGKTAQGLSPVDQRKCERLLLYLYCHELSIEFQEPVPVSIPNYYKIIKKPMDLSTVKKKLQKKHSQHYQIPDDFVADVRLIFKNCERFNEMMKVVQVYADTQEINLKGDSEVAKAGKAVALYFEDKLSEIYSDRTFTPLPEFEQDEDDGEVTEDSDEDFIQPRRKRLKSDERPVHIK
